Marks after values point to notes of the source that are not given here. No end group written: not given here.

One series addresses T1, Mouse GLP-1R (Mus musculus, UniProt O35659).
T1 construct: expressed in transfected cells; host or cells: HEK-293
T1 sequence (O35659 22-463): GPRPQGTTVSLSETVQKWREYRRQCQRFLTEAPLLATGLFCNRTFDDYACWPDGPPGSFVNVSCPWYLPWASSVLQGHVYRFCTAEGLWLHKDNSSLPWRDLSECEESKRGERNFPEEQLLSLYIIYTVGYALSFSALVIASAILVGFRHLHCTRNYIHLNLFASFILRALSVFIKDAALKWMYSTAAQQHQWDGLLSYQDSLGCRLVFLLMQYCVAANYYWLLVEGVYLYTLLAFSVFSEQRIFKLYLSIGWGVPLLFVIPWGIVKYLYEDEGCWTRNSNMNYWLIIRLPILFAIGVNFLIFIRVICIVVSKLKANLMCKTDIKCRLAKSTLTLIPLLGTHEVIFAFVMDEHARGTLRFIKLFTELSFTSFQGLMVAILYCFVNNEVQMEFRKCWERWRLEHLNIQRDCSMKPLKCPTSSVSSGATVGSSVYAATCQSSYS
Nature of the series: HTRF cAMP assay in HEK-293 cells, mouse GLP-1R. Format: cell-based. The procedure:
(§1) Recombinant HEK-293 cells were grown in T175 culture flasks placed at 37° C. to near confluence in medium (DMEM with 10% FBS) and collected in 2 mL vials in cell culture medium containing 10% DMSO in concentrations of 1-5×10^7 cells/mL. Each vial contained 1.8 mL cell suspension. The vials were slowly frozen to −80° C. in an isopropanol chamber, and then transferred to liquid nitrogen for long term storage.
(§2) Prior to their use, frozen cells were thawed quickly at 37° C., washed with 20 mL cell buffer (1×HBSS; 20 mM HEPES, 0.1% BSA) and centrifuged for 5 minutes at 900 rpm. Cells were resuspended in assay buffer (cell buffer plus 2 mM IBMX) and adjusted to a cell density of 1×10^6 cells/mL. For measurement, 5 μL cell suspension (final 5×10^3 cells/well) and 5 μL of test compound were added to a well of a 384-well plate, followed by incubation for 30 minutes at room temperature. […] The cAMP content of cells was determined using a kit from Cisbio Corp. (cat. no. 62AM4PEC) based on Homogenous Time Resolved Fluorescence (HTRF).
Background: TR-FRET usually uses a lanthanide donor and a delayed reading to cut background.

For a further series, the target named is T2, Monkey GLP-1R (Macaca fascicularis, UniProt F8V479).
T2 construct: expressed in transfected cells; host or cells: HEK-293
T2 sequence (F8V479 24-463): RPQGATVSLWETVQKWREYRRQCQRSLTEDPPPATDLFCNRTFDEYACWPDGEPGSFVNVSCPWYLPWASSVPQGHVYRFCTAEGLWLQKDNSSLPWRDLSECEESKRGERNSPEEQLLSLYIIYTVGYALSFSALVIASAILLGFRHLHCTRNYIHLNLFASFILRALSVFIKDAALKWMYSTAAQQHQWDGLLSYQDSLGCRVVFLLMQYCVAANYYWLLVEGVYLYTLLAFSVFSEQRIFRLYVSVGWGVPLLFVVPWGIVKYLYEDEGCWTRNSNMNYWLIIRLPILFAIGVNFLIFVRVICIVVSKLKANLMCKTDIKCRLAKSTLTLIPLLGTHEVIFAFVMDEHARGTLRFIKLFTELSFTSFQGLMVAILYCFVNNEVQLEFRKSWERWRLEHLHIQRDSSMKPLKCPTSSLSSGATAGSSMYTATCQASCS
Nature of the series: HTRF cAMP assay in HEK-293 cells, monkey GLP-1R. It is filed as cell-based. The procedure: as §1, §2

The next series has as its target T3, Human GLP-1R (Homo sapiens, UniProt P43220).
T3 construct: expressed in transfected cells; host or cells: HEK-293
Nature of the series: HTRF cAMP assay in HEK-293 cells, human GLP-1R. Format: cell-based. The procedure: as §1, §2

Series [1] has as its target T4, human FGFR1c together with human beta-Klotho (KLB) (human, UniProt P11362 22-822; Q86Z14 1-1044). Nature of the series: cell-based or functional assay.
Series [2] has as its target T4, human FGFR1c together with human …. Nature of the series: cell-based or functional assay. The source holds these as a separate data set.
Series [3] is described as follows: Pharmacokinetics after single subcutaneous administration in mouse. It is filed as in vivo, female C57BI/6 mice. The note with it: FGF21 intact assay; 0.3 mg/kg subcutaneous. The procedure: Plasma concentrations and pharmacokinetic parameters of GLP-1 RA/FGF21 Fc fusion proteins were determined after single subcutaneous administration of 0.3 mg/kg in solution to female C57BI/6 mice or male Cynomolgus monkeys using three different methods. Blood samples were obtained at time points from 30 minutes to 168 hours after dosing. […]
a.) Bioanalytical Screening Method for Quantification of the Intact FGF21 Part of the GLP-1 RA/FGF21 Fc Fusion Proteins Plasma samples were analyzed for the intact FGF21 part of the fusion proteins with an ELISA kit (F1231-K01, Eagle Biosciences, USA). […] For the detection of this immunocomplex, the well was then incubated with a substrate solution in a timed reaction and then measured in a spectrophotometric microplate reader. […]
b.) Bioanalytical Screening Method for Quantification of the Intact Full-Length Fusions Proteins The concentration of the full-length GLP-1RA/FGF21 Fc fusion proteins in plasma were determined utilizing an ELISA method. […] Following washing 3 times with 300 μL PBS-T 150 μL read buffer was added to the wells. […]
c.) Bioanalytical Screening Method for Quantification of the Intact GLP-1 Part of the GLP-1 FGF21 Fc Fusion Proteins Plasma samples were analyzed for the intact GLP-1 part of the fusion proteins with a GLP-1 ELISA method. […]

Series [4] in a line: Thermal shift assay (DSF, Sypro Orange). Format: physicochemical. The following applies: Data generated via DSF. From the text: In addition, for some proteins a thermal shift assay was applied to analyze thermostability in imitation of differential scanning fluorimetry (DSF or ThermoFluor™) assays (Ahmad S. et al. (2012) Protein Science 21: 433-446; Pantoliano et al. (2001) J. Biomol. Screen 6: 429-440; Niesen et al. (2007) Nat. Protoc. 2: 2212-21). This assay is based on the observation that hydrophobic fluorescent dyes, such as Sypro™ Orange (Life Technologies, cat. No. S6651), increase their fluorescence when they bind to hydrophobic patches on a protein.
Proteins were tested by mixing a solution of each protein in PBS (Gibco) with a 160× solution of Sypro™Orange (diluted in water from a 5000×DMSO stock as provided by the supplier). The sample volume was adjusted to 20 μL with PBS. Typical conditions contained 0.8 mg/mL protein and 8× Sypro™Orange in the final mixture, but protein concentrations could be varied between 0.4 mg/mL and 1.2 mg/mL. Samples were dispensed in 96-well PCR plates (BioRad Semi-Skirt 96 white) and shortly centrifuged to remove air bubbles. […] For excitation and quantification of fluorescence, filters for wavelengths of 485 nm and 575 nm were chosen. […] In curves of fluorescence intensity against temperature, the inflection point was chosen as the measure for the melting temperature (Tm).
Background: In DSF a fluorescence change marks the thermal transition of the protein.

T4 sequence (P11362 22-822, chain 1 of 2): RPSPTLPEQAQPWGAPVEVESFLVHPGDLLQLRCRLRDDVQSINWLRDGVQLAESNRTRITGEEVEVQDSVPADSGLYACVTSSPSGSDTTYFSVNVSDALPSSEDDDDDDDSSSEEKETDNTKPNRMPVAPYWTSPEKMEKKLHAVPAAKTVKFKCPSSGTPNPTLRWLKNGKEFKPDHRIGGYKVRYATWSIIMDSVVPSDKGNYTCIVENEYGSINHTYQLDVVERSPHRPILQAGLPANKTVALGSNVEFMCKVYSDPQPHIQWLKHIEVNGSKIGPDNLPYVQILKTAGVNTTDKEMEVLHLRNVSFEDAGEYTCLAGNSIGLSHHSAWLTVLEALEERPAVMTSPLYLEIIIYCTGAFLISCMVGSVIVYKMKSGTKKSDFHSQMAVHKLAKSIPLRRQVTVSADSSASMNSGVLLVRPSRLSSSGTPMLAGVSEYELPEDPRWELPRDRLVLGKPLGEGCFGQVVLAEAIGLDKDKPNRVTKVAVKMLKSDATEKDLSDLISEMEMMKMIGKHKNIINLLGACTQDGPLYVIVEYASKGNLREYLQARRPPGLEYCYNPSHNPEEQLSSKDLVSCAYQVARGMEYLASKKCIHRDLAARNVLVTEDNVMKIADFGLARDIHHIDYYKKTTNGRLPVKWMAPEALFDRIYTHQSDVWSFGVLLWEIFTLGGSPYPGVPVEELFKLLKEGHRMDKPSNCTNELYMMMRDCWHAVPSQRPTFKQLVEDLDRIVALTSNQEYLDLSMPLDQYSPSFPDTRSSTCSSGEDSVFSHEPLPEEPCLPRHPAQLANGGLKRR
T4 sequence (Q86Z14 whole entry, chain 2 of 2): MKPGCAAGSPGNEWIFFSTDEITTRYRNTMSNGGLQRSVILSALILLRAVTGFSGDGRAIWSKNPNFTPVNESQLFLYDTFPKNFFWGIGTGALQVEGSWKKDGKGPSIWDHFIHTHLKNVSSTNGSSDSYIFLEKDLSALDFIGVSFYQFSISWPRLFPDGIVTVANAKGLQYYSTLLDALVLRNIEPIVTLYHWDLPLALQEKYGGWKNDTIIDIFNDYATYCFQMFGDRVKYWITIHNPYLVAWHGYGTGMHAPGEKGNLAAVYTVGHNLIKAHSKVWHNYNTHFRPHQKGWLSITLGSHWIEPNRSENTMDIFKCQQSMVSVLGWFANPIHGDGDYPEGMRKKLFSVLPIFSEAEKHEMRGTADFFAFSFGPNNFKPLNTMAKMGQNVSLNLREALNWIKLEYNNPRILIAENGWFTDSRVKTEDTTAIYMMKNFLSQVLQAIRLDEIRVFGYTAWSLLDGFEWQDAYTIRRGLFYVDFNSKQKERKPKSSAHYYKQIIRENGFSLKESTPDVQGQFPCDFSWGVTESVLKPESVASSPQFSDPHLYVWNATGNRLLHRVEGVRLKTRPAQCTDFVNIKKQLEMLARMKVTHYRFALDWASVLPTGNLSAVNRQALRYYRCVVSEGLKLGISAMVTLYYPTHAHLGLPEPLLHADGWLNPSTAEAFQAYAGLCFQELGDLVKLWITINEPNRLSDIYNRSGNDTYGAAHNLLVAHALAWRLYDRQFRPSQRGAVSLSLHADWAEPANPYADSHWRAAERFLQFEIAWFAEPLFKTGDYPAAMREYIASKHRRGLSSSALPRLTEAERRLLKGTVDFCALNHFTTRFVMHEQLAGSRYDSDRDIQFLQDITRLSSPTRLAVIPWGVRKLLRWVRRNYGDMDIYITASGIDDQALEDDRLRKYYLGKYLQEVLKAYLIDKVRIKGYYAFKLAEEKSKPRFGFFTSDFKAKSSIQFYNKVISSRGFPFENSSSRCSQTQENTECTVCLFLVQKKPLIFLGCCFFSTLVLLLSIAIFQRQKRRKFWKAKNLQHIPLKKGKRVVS
T3 sequence (P43220 24-463): as the sequence (F8V479 24-463) above, with N112S, S120F, G202S, V205L, F237L, R241W, V249I counted along it

For “GHGEGTFTSDKSKQLEEEAVRLFIEWLKAGGPKKIRYS-NH2 [compound 278]”, the EC50 stood at 7.65 pM on Mouse GLP-1R, 5.74 pM on Monkey GLP-1R and 0.0105 nM on Human GLP-1R.

B1: G-FGF21 (mature human wild-type FGF21 with an additional N-terminal Gly) (ligand)
chain: GHPIPDSSPLLQFGGQVRQRYLYTDDAQQTEAHLEIREDGTVGGAADQSPESLLQLKALKPGVIQILGVKTSRFLCQRPDGALYGSLHFDPEACSFRELLLEDGYNVYQSEAHGLPLHLPGNKSPHRDPAPRGPARFLPLPGLPPAPPEPPGILAPQPPDVGSSDPLSMVGPSQGRSPSYAS
As to B1, the “pERK ICW EC50” value in series [1] is 0.17 nmol/L. Besides, the “pFGFR ICW EC50” value in series [2] was determined as 4.49 nmol/L.

B2: 252 (protein)
chain: B1 chain
modifications: G-FGF21
For B2, the t1/2 mouse in series [3] was determined as 42 min. Besides, in series [4], the “Tm (melting temperature)” value is reported as 43.1* ° C.

Usually EC50 stands for the concentration needed to bring the measured effect to its halfway point.
